The results in this text go back to patent publication US20130344053A1, “Methods of Modifying Insulin Signaling Using Biliverdin Reductase (BVR) and BVR Derived Peptides” (University of Rochester, priority 2010, published 2013).

Series [1] relates to human epithelial kidney (HEK) cells. Description: Insulin-dependent glucose uptake in HEK cells. To be noted: myristoylated peptide 2 h, then insulin 100 nM 10 min. It is filed as cell-based. How it is done: (§1) FIGS. 15A-B show the effect of hBVR-based peptides on IGF-dependent glucose uptake in rat smooth muscle cells (PAC1) (FIG. 15A) and insulin-dependent glucose uptake in human epithelial kidney (HEK) cells (FIG. 15B). Cells were treated as described for FIG. 14 and glucose uptake was measured as described infra.
(§2) The therapeutic utility of various BVR peptides with regard to their ability to modify insulin and insulin growth factor (IGF) mediated cellular glucose uptake was evaluated. Human embryonic kidney cells (HEK293) or rat aortic smooth muscle cells (PAC) were starved in low glucose serum-depleted DMEM for twenty hours prior to transfer to PBS containing CaCl2, MgCl2. After two hours, myristoylated peptides were added to the medium for two additional hours. Thereafter, IGF-1 (50 ng/ml) or insulin (100 nM) was added (10 min) and glucose uptake was tested for three minutes in the presence of methyl-D-glucose,3-O-[methyl-3H]. Subsequently, cells were washed three times in cold PBS and solubilized in NaOH (0.05 mM). Aliquots were measured for radioactivity. Non-specific binding or diffusion was tested by addition of 300 mM glucose to the cells. This value was deducted from the total counts (on the average <20%) and results were normalized for protein concentration.

For series [2], the system named is rat smooth muscle cells (PAC1). In words: Glucose uptake in PAC1 cells (IGF-dependent). The class given is cell-based. To be noted: myristoylated peptide 2 h, then IGF-1 50 ng/ml 10 min. How it is done: Glucose uptake was tested as described infra. Cells were starved in low glucose serum-depleted DMEM for 20 hours prior to transfer to PBS containing CaCl2, MgCl2. After 2 hrs myristoylated peptides were added to the medium for 2 hours. Thereafter, IGF-1 (50 ng/ml) or insulin (100 nM) was added (10 min) and glucose uptake was tested for 3 min in the presence of methyl-D-glucose,3-O-[methyl-3H]. Subsequently cells were washed 3 times in cold PBS and solubilized in NaOH (0.05 mM). Aliquots were measured for radioactivity. Non-specific binding or diffusion were tested by addition of 300 mM glucose to the cells. This value was deducted from the total counts (on the average <20%) and results were normalized for protein concentration.
as §1, §2

Series [3] deals with insulin receptor substrate-1 (IRS-1) peptide Y^608.
Another series has as its system 293A cells. Description: Insulin-mediated glucose uptake (2DG) in 293A cells. As to conditions: insulin 15 min, 2DG 15 min, vs controls infected with vector alone, p≦0.05. The class given is cell-based, human. How it is done:
FIG. 12A-D illustrates that “knock-down” BVR and Y^198 detection increased glucose uptake into 293A cells upon insulin induction. As shown in the graph of FIG. 12A, insulin treatment increases BVR activity. 293A cells were treated with insulin (50 nM) and subsequently used at indicated time points for BVR activity measurement. […] Purified BVR was phosphorylated by IRK for the indicated periods. Reactions were terminated by diluting with PBS and freezing at −20° C. BVR activity was determined as in FIG. 12A, and normalized to that of the control (43.8 μmol per min per mg). […] 293A cells were incubated with insulin and after 8 min or 30 min, subjected to immunoprecipitation using anti-human BVR antibodies. The phosphorylated BVR was visualized by immunoblotting using anti-tyrosine antibodies. ECL system was used for visualization of phosphorylated BVR. […]
Glucose uptake was assessed by measuring 2-deoxy 1-[^3H] glucose (2DG) absorption as described by (Braiman et al. (Mol. Endocrinol. 13:2002-12 (1999)), which is hereby incorporated by reference), with minor modifications. […] Radioactivity was measured and data was normalized to protein concentration. Non-specific uptake was determined in the presence of 200 mM of glucose and was subtracted from the total uptake. […]

The target in series [4] is T1, insulin receptor kinase (IRK) (Homo sapiens, UniProt P06213).
T1 construct: GST-hBVR fusion protein and the 48 kDa cytoplasmic domain of the β-subunit of IRK; purchased Biomol International (Plymouth, Pa.)
In words: BVR phosphorylation by the insulin receptor tyrosine kinase (IRK). It is filed as biochemical. To be noted: tyrosine point mutant as IRK substrate, 2 h at 30° C. How it is done:
FIGS. 7A-B illustrate BVR as a substrate for insulin receptor kinase. […] 10 μg purified wtBVR was incubated in 100 μl kinase assay buffer (pH 8.0) containing 0.1 μg IRK, 10 μM ATP, and 20 μCi [^32P]-ATP at 25° C. up to 4 h. The reaction was terminated by the addition of Laemmli buffer at different points of time as indicated. Samples were separated using 8% SDS-PAGE gel and transferred onto PVDF filter, and phosphorylated protein bands were visualized by autoradiography. […] From left to right lane 1, wtBVR plus IRK in the presence of 50 mM EDTA (pH 8.0); lane 2, wtBVR plus IRK; lane 3, wtBVR in the absence of IRK. The reaction mixtures were subjected to SDS-PAGE electrophoresis and transferred onto a polyvinylidene fluoride (“PVDF”) filter. The blot was immuno-stained with anti-phosphotyrosine antibodies and ECL detection system was used to visualize phosphorylated tyrosines. […] In FIG. 8A the Y^198 residue of BVR is phosphorylated by IRK. Purified wtBVR and Y^198 mutant BVR were incubated with IRK at 30° C. for 2 h. Samples were subjected to SDS-PAGE electrophoresis and processed as described in FIG. 8B. FIG. 8B is a time course of Y^198 mutant BVR phosphorylation by IRK. A purified preparation of human BVR that carried Y^198 mutation was incubated with IRK for up to 3 h as described in FIG. 7A. Samples taken at the indicated time-points were analyzed for detection of phosphorylated proteins as above. […] Subsequently, samples were subjected to SDS-PAGE, stained with Coomassie blue and visualized bands were excised and used for measurement of radioactive content. The experiments were repeated three times. […] The indicated double mutants of BVR were used as substrates for IRK and analysis was carried out as in FIG. 8A. FIGS. 10A-B illustrate that autophosphorylation of BVR is an Mn^+2 dependant kinase reaction. […] The effects of different metal ions (30 mM MnCl2, 20 mM MgCl2, 20 mM CaCl2, 20 mM Zn acetate) and their combinations were analyzed as indicated in the text. […] The reactions were carried out in HEPES buffer (pH 8.0) in the presence of 20 mM MgCl2 as described in the Examples. Phosphorylation of BVR by IRK was examined using GST-hBVR fusion protein and the 48 kDa cytoplasmic domain of the β-subunit of IRK. BVR (5 μg) was incubated in 50 μl of IRK kinase buffer containing 50 mM HEPES (pH 8.0), 20 mM MgCl2, 1 mM DTT in the presence of 0.05 μg IRK and 10 μM ATP labeled with 10 μCi [γ-^32P]-ATP. The reaction was started with the addition of labeled ATP and incubated for 2-4 h. Reactions were terminated by addition of Laemmli sample buffer and boiled for 3 min. Samples were subjected to 8% SDS-PAGE and transferred to PVDF membranes for autoradiography.

For another series, the system named is human BVR. In words: BVR autophosphorylation. As to conditions: pH 8.4, 30 mM MnCl2, 2 h at 30° C. It is filed as biochemical. The procedure: In FIG. 9A, effect of tyrosine mutations of BVR on its autophosphorylation is shown. Human wtBVR and BVR with mutations in tyrosine were used in the experiment to determine autophosphorylation of BVR. The reactions were performed as described in the Examples. FIG. 9B is a graph showing that BVR tyrosine kinase activity was checked by incubating 5 μg purified BVR with 5 μg Raytide in 50 μl kinase buffer containing 10 μM labeled ATP for 2 h at 30° C. The aliquots of the reaction were transferred onto P81 Whatman filters and radioactivity due to phosphorylation was measured using a scintillation counter.
FIGS. 10A-B illustrate that autophosphorylation of BVR is an Mn^+2 dependant kinase reaction. […] The effects of different metal ions (30 mM MnCl2, 20 mM MgCl2, 20 mM CaCl2, 20 mM Zn acetate) and their combinations were analyzed as indicated in the text. […] Phosphorylation of wtBVR by IRK in the presence of tyrosine kinase inhibitor genestein (200 μM); DMSO was used as the vehicle for genestein and was included in the control reaction mixture. The reactions were carried out in HEPES buffer (pH 8.0) in the presence of 20 mM MgCl2 as described in the Examples.
To detect autophosphorylation of BVR, GST-hBVR of wild type (wt) and mutant variants were incubated in 50 mM HEPES buffer (pH 8.4) in the presence of 30 mM MnCl2 and 1 mM DTT for 2 h at 30° C. The reaction was started with the addition of 10 μM ATP labeled with 10 μCi [γ-^32P]-ATP and was stopped with the addition of Laemmli sample buffer. Samples were boiled for 3 min and applied to a 8% SDS-PAGE gels, transferred to a PVDF membrane, and then visualized by autoradiography. […] The reaction was started with the addition of ATP and terminated by adding 120 μl 10% H3PO4. 100 μl aliquots were directly transferred to P81 Whatman filters which were subsequently washed extensively in 0.75% phosphoric acid at room temperature. Finally, the filters were submerged in acetone for 5 min, dried, and retained counts were measured using a Beckman LS 6500 liquid scintillation counter (Beckman Coulter, Fullerton, Calif.).

T1 sequence (P06213 980-1382 limits assumed): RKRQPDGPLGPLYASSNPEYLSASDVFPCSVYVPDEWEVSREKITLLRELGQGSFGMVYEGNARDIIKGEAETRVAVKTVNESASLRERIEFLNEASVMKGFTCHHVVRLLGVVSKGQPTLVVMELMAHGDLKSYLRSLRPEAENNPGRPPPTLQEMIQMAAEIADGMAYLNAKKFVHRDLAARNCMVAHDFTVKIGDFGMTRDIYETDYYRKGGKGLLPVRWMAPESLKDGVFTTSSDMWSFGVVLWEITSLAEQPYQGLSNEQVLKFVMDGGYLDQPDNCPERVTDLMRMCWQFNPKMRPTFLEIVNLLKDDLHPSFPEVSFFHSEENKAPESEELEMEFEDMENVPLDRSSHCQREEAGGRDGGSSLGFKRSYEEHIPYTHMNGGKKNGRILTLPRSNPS

Regarding “KRNRYLSF (Biliverdin reductase derived peptide) [hBVR peptide, amino acids 224-231 of BVR]”, the “insulin mediated cellular glucose uptake in HEK cells” value in series [1] is listed as “antagonizing insulin mediated cellular glucose uptake”. In addition, the “IGF-mediated cellular glucose uptake in PAC1 cells” value in series [2] was “inhibit IGF-mediated cellular glucose uptake”.

In the case of “GST-hBVR G17 mutant (GVGRA to GVARA), ATP binding domain mutant”, the “IRS phosphorylation by BVR (kinase assay)” value in series [3] is “G^17 mutation, for the most part, prevented IRS phosphorylation by BVR”.

As for “siBVR: human BVR siRNA, target nt96-nt116, expressed from retroviral vector pSuper-Retro-siBVR (chain 1 UCCUCAGCGUUCCUGAACCUG; chain 2 AGGAGUCGCAAGGACUUGGAC)”, the “insulin-mediated glucose uptake by cells” value in the series on 293A cells was “significantly increased insulin-mediated glucose uptake”.

B1: Y^198: human BVR point mutant DQYMK to DQFMK (protein, UniProt P53004 3-296, looked up, variant Y198F)
Biliverdin reductase A: AEPERKFGVVVVGVGRAGSVRMRDLRNPHPSSAFLNLIGFVSRRELGSIDGVQQISLEDALSSQEVEVAYICSESSSHEDYIRQFLNAGKHVLVEYPMTLSLAAAQELWELAEQKGKVLHEEHVELLMEEFAFLKKEVVGKDLLKGSLLFTAGPLEEERFGFPAFSGISRLTWLVSLFGELSLVSATLEERKEDQFMKMTVCLETEKKSPLSWIEEKGPGLKRNRYLSFHFKSGSLENVPNVGVNKNIFLKDQNIFVQKLLGQFSEKELAAEKKRILHCLGLAEEIQKYCCSRK
On to B1, for which, in series [4], the “reduction of extent of BVR phosphorylation by IRK compared with wtBVR” value was about 70%. Also, the “autophosphorylation of BVR (mutants)” value in the series with human BVR is “did not result in significant changes in autophosphorylation of BVR”. In addition, the “insulin-mediated glucose uptake by cells” value in the series on 293A cells is “increased significantly”.
